To fix the notation:
B1: Dog: dog AST, SEQ ID NO: 30 and 31 (protein, listed as Canis familiaris)
chain: MYRPARVPSGSRFLNPYVVCFVVVAGVVILAVTIALLIHFLAFDQKSYFYHSSFQILNVQYSNQLNSPGTQEYRTLSGRIESLITKTFRESNLRNQFIRAHVVKLRQEGNGVIADVVMKFKFTRNNNGALMKSRIKSVLHQMLNNSGNLEISPSTEITSITDQDTVNIFTEGCGARPDLITLSEERILGGNKAEEGDWPWQVSLQKNNVHHCGGVLISSMWILSAAHCFRSQSNPRQWTAIFGASIAFPKQKRRVRTILIHNNYNPATHENDIAAIQLEGGINFTKNIHRVCLPEATQNIPPGSSAYVTGWGSQEYGGNTVSDLQQARVRIISNDVCNAPTSYNGAVRPGMLCAGLPQGGVDACRGDSGGPLVQEDSRRLWFLVGIVSWGDRCGLPDKPGVYTRVTAYRDWITEKTGV
B2: Pig: pig AST, SEQ ID NO: 26 and 27 (protein, listed as Sus scrofa)
chain: MYRPATVRSASRSLNPYTVCFIVVAVVVILAVTIALLVHFLAFDQKAYFYHSRFQILNVEYSDELNSPATQKYRSLSGRIESMITRTFKESNLRNQFVRAHVVKLRQSGSGVIADIVMKFKFTRYNNGASMKSRIESVLRQMLNNTGNLVMNPSTELTPITDQDTVNIFTQGCGARPDLITLSEERIIGGTKAEEGDWPWQVSLQRNNLHHCGGVLISNRWILTAAHCFRSYSDPRQWTVTFGISTIFPKDRIGVRNILIHNNYNPETHENDIALVQLNREVAFTKNIHSVCLPEATQTIPPGSTAYVTGWGSQRYSGNTVPDLEQVRVNIISNDVCNSPAGYNGDVLPGMLCAGLPEGGADACQGDSGGPLQQEDSRRLWFLVGIVSWGYQCGLPDKPGVYTRVTAYRDWIAQQTGI
B3: Rabbit: rabbit AST, SEQ ID NO: 34 and 35 (protein, listed as Oryctolagus cuniculus)
chain: MYRPARGSSTSRFLNPYVICFIVVAVVVILAVIVALLIHFLAFDKKSCFFHSSFQIRNVQYSDQLNSPATQEYRLLSERIESMISQTLQGSNLRNQFIRAHVVKLRQDSNSVIADVVMKFRVSRNNNGDAMKRRVQDVLQQMLNNSGSLEINPSTTVTEITGQDTETIFTQQCGARPDLITLSEERIIGGTQAEEGDWPWQVSLQPNNAHHCGGILISNTWILTAAHCFRSYSDPRQWTATFGISTAVSRQRMRIRTILVHNNYRSATHENDIAAVQLEGAITFTRNIHSVCLPEATQNITPGSSAYVTGWGSLEYGGNTVTYLQQGRVRIISNEVCNAPASYNGAVLPTMVCAGLSQGGVDACQGDSGGPLVQEDSRRLWFVVGIVSWGYQCGLPDKPGVYTRVTAYRDWIREQTGI
B4: Cattle: cattle AST, SEQ ID NO: 32 and 33 (protein, listed as Bos taurus)
chain: MYRPARVTSASRSLNPYLVFFVVVAVVVILAVIIGLLVYFLAFDQKSYFYQSSIQILGKQYSDELSSPATEKYRTLSGRIESMITKTFKESDLKNEFIKAHVVKLRQSGNNVIADIIMKFKFTRRINEASMKSRIESILRQMPNNSEDLNMNPTQVISITGQDTIQLFTRECGVRSDLITLSEERIIGGSKAEKGDWPWQVSLQWSSSHRCGGALISNRWILSAAHCFRSHSDPRQWIATFGTSTISPQLRVGVRNILIHDNYKPETHENDIALVQLDREVTFNRYIHTVCLPEANQAISAGSTAYVTGWGSQSYSGSTVSDLNQGRVNIISNTVCNTPAGYNGAVLSGMLCAGLPEGGVDACQGDSGGPLVQEDSRQHWFIVGIVSWGYQCGLPDKPGVYTRVTAYRDWITQQTGI
B5: Monkey: monkey AST, SEQ ID NO: 28 and 29, expressed in 293 EBNA cells (protein, listed as Macaca fascicularis)
chain: MYRPARVPSTSRFLNPYVVCFIVVAGVVILAVTIALLVYFLAFDQKSYFYRSSFQLLNVEYNSQLNSPATQEYRTLSGRIESLITRTFKESNLRNQFMRAHVVKLSQDGSGVRADVVMKFRFTRNNNGASMKSRIESVLQQMLNNSGNLEINSSTEITSLTDQAAANWLINECGAGPDLITLSEQRIIGGTEAEEGSWPWQVSLRVNNAHHCGGSLISNTWILTAAHCFRSNSNPREWIATFGISTTNPRLRMRVRSILIHNNYISATHENDIALVRLENSVTFTRDIHSVCLPAATQNIPLGSTAYVTGWGAQEYAGSTVSELRQAQVRIISNDVCNAPYSYNGGILPGMLCAGVPQGGVDACQGDSGGPLVQEDSRRLWFLVGIVSWGDQCGLPDRPGVYTRVTTYRDWIRQRTGI

Consider five molecules from patent US20040038369A1, “Airway-specific trypsin-like enzymes and method of using the same” (priority 2000, published 2004).

One experiment in a line: Enzymatic activity of mammalian ASTs transiently expressed in 293 EBNA cells. Format: biochemical. Conditions: 293 EBNA cell lysate, three days after transfection. The protocol:
A forward primer and a reverse primer were prepared on gene sequences encoding the N-terminal and C-terminal of each mammalian AST, and a cDNA encoding the full-length AST was prepared by a PCR amplification using the forward primer, the reverse primer, Pyrobest DNA polymerase (produced by Takara Shuzo Co.), and an airway cDNA as a template. On the other hand, a product obtained by cleaving pcDNA3 (produced by Invitrogen Corp.) with restriction enzymes NruI and KpnI, and the promoter domain of Elongation Factor-1a (EF-1 a) from human genome were amplified by a PCR using a forward primer: […] and a reverse primer: […]. The amplified fragment was cleaved with restriction enzymes NruI and KpnI, and then inserted into the above-described plasmid vector to construct the pEF9 expression vector having the promoter of the human EF-1α. The PCR-amplified ATS fragment was inserted into a multi-cloning site in the downstream of the human EF-1α promoter of the above-described pEF9 expression vector to prepare each animal AST expression plasmid. The base sequences were identified with an automatic sequencer.
Human fetal kidney-originated 293 EBNA cells (Invitrogen Corp.) were cultured in a 10 cm schale, and the about 5.8×10^6 cells were transfected with 28 μg of each expression plasmid prepared in (1) in 56 μL of LipofectAMINE 2000 (produced by GibcoBRL Corp.) according to an appended manual. Three days later, the cells were lysed and recovered in 5 mL of M-PER (produced by PIERCE Corp.) and then mixed with 5 mL of a buffer solution (50 mM Tris-HCl, 0.01% BSA, pH=8.6) for AST activity assay to give the cell lysate. The cell lysate was further diluted with the buffer solution for the AST activity assay ten times, and then supplied for the activity assay. 40 μL of the above-described assay sample was mixed with 20 μL of a synthetic substrate solution (a solution obtained by diluting a 10 mM Boc-Phe-Ser-Arg-MCA DMSO (dimethyl sulfoxide) solution with the buffer solution for the AST activity assay 50 times), and the increase of the fluorescence intensity per minute was assayed (fluorescence wavelength: 460 nm, excitation wavelength: 380 nm) to determine the enzymatic activity.
As for B1, the “Cell lysate Fluorescence intensity ratio (Human:100)” value was determined as 40.
Regarding B2, the “Cell lysate Fluorescence intensity ratio (Human:100)” value was determined as 92.
For the molecule B3, the “Cell lysate Fluorescence intensity ratio (Human:100)” value turned out to be 30.
B4: the “Cell lysate Fluorescence intensity ratio (Human:100)” value is listed as 16.
Regarding B5, the “Cell lysate Fluorescence intensity ratio (Human:100)” value is listed as 250.

The same experiment, now with this note: 293 EBNA, Sup.
For the molecule B5, the “Sup Fluorescence intensity ratio (Human:100)” value is recorded as 150.
